Data from the supplement of paper PMC5998384.

What was measured:
HeLa Kyoto [1] = assay: thermal stability score vs G1/S (z-score of summed log2 fold changes over temperatures); higher = more thermally stable than in G1/S
HeLa Kyoto [2] = assay: melting temperature (median over replicates), in situ; higher = more thermally stable
HeLa Kyoto [3] = assay: solubility change mitosis vs G1/S (difference of NP-40 vs SDS log2 ratios) (log2 ratio difference); higher = more soluble in mitosis
HeLa Kyoto [4] = assay: solubility in G1/S (NP-40 vs SDS abundance) (log2 ratio); higher = more soluble; settings: cell cycle stage: G1/S
[5] = cell cycle stage: early G1 (4.5 h after nocodazole release)
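For melting temperature (median over replicates), in situ in this document: HeLa Kyoto cells synchronized by double thymidine or nocodazole block, proteins quantified by TMT10plex mass spectrometry, three independent biological replicates.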
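For solubility change mitosis vs G1/S (difference of NP-40 vs SDS log2 ratios) in this document: synchronized HeLa Kyoto cells (double thymidine block for G1/S, nocodazole release for mitosis), protein amounts in NP-40 versus SDS lysates quantified by mass spectrometry, three biological replicates.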
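For solubility in G1/S (NP-40 vs SDS abundance) in this document: HeLa Kyoto cells arrested at G1/S by double thymidine block, proteins quantified by TMT10plex mass spectrometry in mild NP-40 versus SDS extracts, three biological replicates.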
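For thermal stability score vs G1/S (z-score of summed log2 fold changes over temperatures) in this document: synchronized HeLa Kyoto cells, proteins quantified by TMT10plex mass spectrometry, three biological replicates, mitosis taken 0.5 h after nocodazole release, G1/S directly after double thymidine block.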

Sequence | thermal stability score (HeLa Kyoto [1]; [5]) | thermal stability score (HeLa Kyoto [1]; cell cycle stage: mitosis) | melting temperature (HeLa Kyoto [2]; cell cycle stage: G1/S) [°C] | melting temperature (HeLa Kyoto [2]; cell cycle stage: mitosis) [°C] | solubility change mitosis (log2) (HeLa Kyoto [3]) | solubility in G1/S (log2) (HeLa Kyoto [4])
MPAGRAARTCALLALCLLGAGAQDFGPTRFICTSVPVDADMCAASVAAGGAEELRSSVLQLRETVLQQKETILSQKETIRELTAKLGRCESQSTLDPGAGEARAGGGRKQPGSGKNTMGDLSRTPAAETLSQLGQTLQSLKTRLENLEQYSRLNSSSQTNSLKDLLQSKIDELERQVLSRVNTLEEGKGGPRNDTEERVKIETALTSLHQRISELEKGQKDNRPGDKFQLTFPLRTNYMYAKVKKSLPEMYAFTVCMWLKSSATPGVGTPFSYAVPGQANELVLIEWGNNPMEILINDKVAKLPFVINDGKWHHICVTWTTRDGVWEAYQDGTQGGSGENLAPYHPIKPQGVLVLGQEQDTLGGGFDATQAFVGELAHFNIWDRKLTPGEVYNLATCSTKALSGNVIAWAESHIEIYGGATKWTFEACRQIN [NPTX1] | 3.28 | 3.79 | 54 | 55.4 | -0.119 | 0.224
MPATLLRAVARSHHILSKAHQCRRIGHLMLKPLKEFENTTCSTLTIRQSLDLFLPDKTASGLNKSQILEMNQKKSDTSMLSPLNAARCQDEKAHLPTMKSFGTHRRVTHKPNLLGSKWFIKILKRHFSSVSTETFVPKQDFPQVKRPLKASRTRQPSRTNLPVLSVNEDLMHCTAFATADEYHLGNLSQDLASHGYVEVTSLPRDAANILVMGVENSAKEGDPGTIFFFREGAAVFWNVKDKTMKHVMKVLEKHEIQPYEIALVHWENEELNYIKIEGQSKLHRGEIKLNSELDLDDAILEKFAFSNALCLSVKLAIWEASLDKFIESIQSIPEALKAGKKVKLSHEEVMQKIGELFALRHRINLSSDFLITPDFYWDRENLEGLYDKTCQFLSIGRRVKVMNEKLQHCMELTDLMRNHLNEKRALRLEWMIVILITIEVMFELGRVFF [RMND1] | -1 | -0.87 | 52.1 | 51.2 | -0.125 | -0.145
MPDENIFLFVPNLIGYARIVFAIISFYFMPCCPLTASSFYLLSGLLDAFDGHAARALNQGTRFGAMLDMLTDRCSTMCLLVNLALLYPGATLFFQISMSLDVASHWLHLHSSVVRGSESHKMIDLSGNPVLRIYYTSRPALFTLCAGNELFYCLLYLFHFSEGPLVGSVGLFRMGLWVTAPIALLKSLISVIHLITAARNMAALDAADRAKKK [CDIPT] | -2.08 | -1.66 | 54.7 | 59.4 | -0.0289 | -0.0899
MPEINTNHLDKQQVQLLAEMCILIDENDNKIGAETKKNCHLNENIEKGLLHRAFSVFLFNTENKLLLQQRSDAKITFPGCFTNTCCSHPLSNPAELEESDALGVRRAAQRRLKAELGIPLEEVPPEEINYLTRIHYKAQSDGIWGEHEIDYILLVRKNVTLNPDPNEIKSYCYVSKEELKELLKKAASGEIKITPWFKIIAATFLFKWWDNLNHLNQFVDHEKIYRM [IDI1] | 0.472 | -0.519 | 54.1 | 53.4 | 0.0595 | 0.145
MPEIVDTCSLASPASVCRTKHLHLRCSVDFTRRTLTGTAALTVQSQEDNLRSLVLDTKDLTIEKVVINGQEVKYALGERQSYKGSPMEISLPIALSKNQEIVIEISFETSPKSSALQWLTPEQTSGKEHPYLFSQCQAIHCRAILPCQDTPSVKLTYTAEVSVPKELVALMSAIRDGETPDPEDPSRKIYKFIQKVPIPCYLIALVVGALESRQIGPRTLVWSEKEQVEKSAYEFSETESMLKIAEDLGGPYVWGQYDLLVLPPSFPYGGMENPCLTFVTPTLLAGDKSLSNVIAHEISHSWTGNLVTNKTWDHFWLNEGHTVYLERHICGRLFGEKFRHFNALGGWGELQNSVKTFGETHPFTKLVVDLTDIDPDVAYSSVPYEKGFALLFYLEQLLGGPEIFLGFLKAYVEKFSYKSITTDDWKDFLYSYFKDKVDVLNQVDWNAWLYSPGLPPIKPNYDMTLTNACIALSQRWITAKEDDLNSFNATDLKDLSSHQLNEFLAQTLQRAPLPLGHIKRMQEVYNFNAINNSEIRFRWLRLCIQSKWEDAIPLALKMATEQGRMKFTRPLFKDLAAFDKSHDQAVRTYQEHKASMHPVTAMLVGKDLKVD [LTA4H] | 1.7 | 0.372 | 53 | 53 | -0.173 | 0.0608
MPENVAPRSGATAGAAGGRGKGAYQDRDKPAQIRFSNISAAKAVADAIRTSLGPKGMDKMIQDGKGDVTITNDGATILKQMQVLHPAARMLVELSKAQDIEAGDGTTSVVIIAGSLLDSCTKLLQKGIHPTIISESFQKALEKGIEILTDMSRPVELSDRETLLNSATTSLNSKVVSQYSSLLSPMSVNAVMKVIDPATATSVDLRDIKIVKKLGGTIDDCELVEGLVLTQKVSNSGITRVEKAKIGLIQFCLSAPKTDMDNQIVVSDYAQMDRVLREERAYILNLVKQIKKTGCNVLLIQKSILRDALSDLALHFLNKMKIMVIKDIEREDIEFICKTIGTKPVAHIDQFTADMLGSAELAEEVNLNGSGKLLKITGCASPGKTVTIVVRGSNKLVIEEAERSIHDALCVIRCLVKKRALIAGGGAPEIELALRLTEYSRTLSGMESYCVRAFADAMEVIPSTLAENAGLNPISTVTELRNRHAQGEKTAGINVRKGGISNILEELVVQPLLVSVSALTLATETVRSILKIDDVVNTR [CCT4] | -1.23 | -2.24 | 53.6 | 53.1 | -0.141 | 0.192
